Measured values from patent publication US20200199241A1 (Chugai, published 2020).

T1: human FcγRIIa(R) (human, UniProt P12318 36-217)
T1 construct: also called FcgRIIaR; hFcgRIIa(R)
T1 chain: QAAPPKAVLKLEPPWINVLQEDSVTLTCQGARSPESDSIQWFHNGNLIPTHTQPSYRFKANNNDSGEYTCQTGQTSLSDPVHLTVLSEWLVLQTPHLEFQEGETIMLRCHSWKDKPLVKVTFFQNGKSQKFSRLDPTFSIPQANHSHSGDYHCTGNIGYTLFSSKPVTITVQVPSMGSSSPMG

T2: human FcγRIIa(H) (human, UniProt P12318 36-217)
T2 construct: also called FcgRIIaH; hFcgRIIa(H)
T2 sequence: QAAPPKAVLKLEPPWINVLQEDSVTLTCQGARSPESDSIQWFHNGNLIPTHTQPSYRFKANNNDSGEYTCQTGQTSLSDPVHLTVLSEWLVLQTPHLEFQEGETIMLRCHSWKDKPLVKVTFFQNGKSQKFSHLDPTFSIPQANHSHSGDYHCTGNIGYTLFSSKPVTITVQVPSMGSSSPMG

T3: human FcγRIIb (human, UniProt P31994 43-217, limits assumed)
T3 construct: also called FcgRIIb; hFcgRIIb
T3 sequence: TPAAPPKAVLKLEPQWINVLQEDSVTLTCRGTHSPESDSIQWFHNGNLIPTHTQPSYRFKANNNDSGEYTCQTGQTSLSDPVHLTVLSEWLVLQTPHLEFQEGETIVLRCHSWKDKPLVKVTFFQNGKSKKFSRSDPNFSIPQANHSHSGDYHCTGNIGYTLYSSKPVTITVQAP

T4: mouse FcγRI (mouse, UniProt P26151 25-297)
T4 construct: bought; also called mFcgRI; mFcgR 1
T4 sequence (looked up): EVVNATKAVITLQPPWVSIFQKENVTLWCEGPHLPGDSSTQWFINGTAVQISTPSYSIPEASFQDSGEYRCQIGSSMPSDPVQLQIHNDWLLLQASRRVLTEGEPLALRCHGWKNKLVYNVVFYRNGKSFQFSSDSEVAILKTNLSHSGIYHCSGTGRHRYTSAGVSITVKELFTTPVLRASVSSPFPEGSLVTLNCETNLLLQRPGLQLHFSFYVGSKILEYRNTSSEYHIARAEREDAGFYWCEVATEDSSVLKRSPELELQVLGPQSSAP

T5: mouse FcγRIIb (mouse, UniProt P08101 30-207, limits assumed)
T5 construct: bought; also called mFcgRIIb; mFcgR IIb
T5 sequence (looked up): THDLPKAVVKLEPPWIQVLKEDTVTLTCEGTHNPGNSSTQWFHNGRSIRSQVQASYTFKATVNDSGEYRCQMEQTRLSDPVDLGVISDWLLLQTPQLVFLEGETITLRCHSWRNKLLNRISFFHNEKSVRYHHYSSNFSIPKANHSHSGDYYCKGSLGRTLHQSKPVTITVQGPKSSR

T6: mouse FcγRIII (mouse, UniProt P08508 31-215)
T6 construct: bought; also called mFcgRIII; mFcgR III
T6 sequence (looked up): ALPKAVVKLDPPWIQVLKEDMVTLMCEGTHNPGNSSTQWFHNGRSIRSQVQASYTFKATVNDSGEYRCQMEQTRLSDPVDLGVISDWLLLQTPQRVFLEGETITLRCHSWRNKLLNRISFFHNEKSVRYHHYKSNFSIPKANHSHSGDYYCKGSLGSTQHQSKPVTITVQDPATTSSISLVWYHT

T7: mouse FcγRIV (mouse, UniProt A0A0B4J1G0 21-203)
T7 construct: bought; also called mFcgRIV; mFcgR IV; the vendor's purification tag not given
T7 sequence: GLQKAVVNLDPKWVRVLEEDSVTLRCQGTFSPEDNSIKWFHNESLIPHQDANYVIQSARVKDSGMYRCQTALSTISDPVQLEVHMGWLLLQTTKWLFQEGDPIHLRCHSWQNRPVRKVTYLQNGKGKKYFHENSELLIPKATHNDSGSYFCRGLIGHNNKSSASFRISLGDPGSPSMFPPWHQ

T8: human FcγRIIb (human, UniProt P31994 43-217, limits assumed)
T8 construct: also called hFcgRIIb; FcγIIB
T8 sequence: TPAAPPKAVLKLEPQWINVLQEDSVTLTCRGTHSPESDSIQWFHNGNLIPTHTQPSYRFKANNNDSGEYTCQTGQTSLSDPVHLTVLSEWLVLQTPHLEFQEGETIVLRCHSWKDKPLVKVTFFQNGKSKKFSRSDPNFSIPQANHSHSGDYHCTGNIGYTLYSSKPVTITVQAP

T9: human FcγRIIa(R) (human, UniProt P12318 36-217)
T9 construct: also called hFcgRIIa(R); FcγRIIa type R
T9 chain: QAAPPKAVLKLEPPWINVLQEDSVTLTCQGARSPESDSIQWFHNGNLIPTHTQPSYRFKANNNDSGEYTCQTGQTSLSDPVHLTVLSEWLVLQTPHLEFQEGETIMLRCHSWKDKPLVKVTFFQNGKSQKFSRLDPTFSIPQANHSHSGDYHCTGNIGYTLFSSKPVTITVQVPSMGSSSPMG

T10: human FcγRIIa(H) (human, UniProt P12318 36-217)
T10 construct: also called hFcgRIIa(H); FcγRIIa type H
T10 sequence: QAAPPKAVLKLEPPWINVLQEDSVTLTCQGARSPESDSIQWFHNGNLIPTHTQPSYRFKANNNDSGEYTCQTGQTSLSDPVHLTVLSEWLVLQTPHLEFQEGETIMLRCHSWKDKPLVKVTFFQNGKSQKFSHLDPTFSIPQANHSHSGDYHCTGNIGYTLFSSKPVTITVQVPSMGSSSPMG


Experiments:
[1] = biological target: T11, human FcγRIa (human, UniProt P12314 16-292, limits assumed); experiment: SPR, pH 7.4, antibody captured by Protein L
T11 construct: also called FcgRIa; hFcgRIa

[2] = biological target: T1, human FcγRIIa(R); experiment: SPR, pH 7.4, antibody captured by Protein L
[3] = biological target: T2, human FcγRIIa(H); experiment: SPR, pH 7.4, antibody captured by Protein L
[4] = biological target: T3, human FcγRIIb; experiment: SPR, pH 7.4, antibody captured by Protein L
[5] = biological target: T12, human FcγRIIIa(V) (human, UniProt P08637 17-208, limits assumed); experiment: SPR, pH 7.4, antibody captured by Protein L
T12 construct: also called hFcgRIIIa(V); FcγRIIIa allotype V158

[6] = biological target: T13, human FcRn (soluble human FcRn complexed with β2-microglobulin) (human, UniProt P61769 21-119, limits assumed); experiment: SPR, antibody captured by Protein L, human FcRn as analyte, pH 7.0, 25 C
T13 construct: also called hFcRn

[7] = biological target: T4, mouse FcγRI; experiment: SPR, antibody captured by Protein L, mouse FcγR as analyte, pH 7.4, 25 C
[8] = biological target: T5, mouse FcγRIIb; experiment: as above
[9] = biological target: T6, mouse FcγRIII; experiment: as above
[10] = biological target: T7, mouse FcγRIV; experiment: as above
[11] = biological target: T8, human FcγRIIb; experiment: SPR, antibody captured by Protein L, human FcγR as analyte, pH 7.4, 25 C;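 also: biacore T100 or T200 with Protein L amine-coupled on a CM4 chip, FcγRs diluted in ACES saline with polysorbate 20, buffer-only injection as blank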
[12] = biological target: T14, human FcγRIIIa(V) (human, UniProt P08637 17-208, limits assumed); experiment: as above
T14 construct: also called hFcgRIIIa(V); allotype V158

[13] = biological target: T15, human FcγRIa (human, UniProt P12314 16-292, limits assumed); experiment: as above
T15 construct: also called hFcgRIa; hFcgRI

[14] = biological target: T9, human FcγRIIa(R); experiment: as above
[15] = biological target: T10, human FcγRIIa(H); experiment: as above

| binding amount [1] | binding amount [2] | binding amount [3] | binding amount [4] | binding amount [5] | Kd [6] | BINDING AMOUNT (RU) [7] | BINDING AMOUNT (RU) [8] | BINDING AMOUNT (RU) [9] | BINDING AMOUNT (RU) [10] | BINDING AMOUNT (RU) [11] | BINDING AMOUNT (RU) [12] | BINDING AMOUNT (RU) [13] | BINDING AMOUNT (RU) [14] | BINDING AMOUNT (RU) [15] | Binder |
| --- | --- | --- | --- | --- | --- | --- | --- | --- | --- | --- | --- | --- | --- | --- | --- |
| 19.7 RU | 120 RU | 204 RU | 31.9 RU | 28.1 RU | – | – | – | – | – | – | – | – | – | – | VH3-IgG2-F890/L(WT)-CK (antibody, M252Y/N434Y/Y436V in VH3-IgG2; copies: 2 + 2) heavy: QVQLQESGPGLVKPSETLSLTCAVSGHSISHDHAWSWVRQPPGEGLEWIGFISYSGITNYNPSLQGRVTISRDNSKNTLYLQMNSLRAEDTAVYYCARSLARTTAMDYWGEGTLVTVSSASTKGPSVFPLAPCSRSTSESTAALGCLVKDYFPEPVTVSWNSGALTSGVHTFPAVLQSSGLYSLSSVVTVPSSNFGTQTYTCNVDHKPSNTKVDKTVERKCCVECPPCPAPPVAGPSVFLFPPKPKDTLYISRTPEVTCVVVDVSHEDPEVQFNWYVDGVEVHNAKTKPREEQFNSTFRVVSVLTVVHQDWLNGKEYKCKVSNKGLPAPIEKTISKTKGQPREPQVYTLPPSREEMTKNQVSLTCLVKGFYPSDIAVEWESNGQPENNYKTTPPMLDSDGSFFLYSKLTVDKSRWQQGNVFSCSVMHEALHYHVTQKSLSLSP light: not shown |
| 38.6 RU | 188 RU | 266 RU | 55.5 RU | 50.1 RU | – | – | – | – | – | – | – | – | – | – | VH3-IgG2/L(WT)-CK (antibody, copies: 2 + 2) heavy: QVQLQESGPGLVKPSETLSLTCAVSGHSISHDHAWSWVRQPPGEGLEWIGFISYSGITNYNPSLQGRVTISRDNSKNTLYLQMNSLRAEDTAVYYCARSLARTTAMDYWGEGTLVTVSSASTKGPSVFPLAPCSRSTSESTAALGCLVKDYFPEPVTVSWNSGALTSGVHTFPAVLQSSGLYSLSSVVTVPSSNFGTQTYTCNVDHKPSNTKVDKTVERKCCVECPPCPAPPVAGPSVFLFPPKPKDTLMISRTPEVTCVVVDVSHEDPEVQFNWYVDGVEVHNAKTKPREEQFNSTFRVVSVLTVVHQDWLNGKEYKCKVSNKGLPAPIEKTISKTKGQPREPQVYTLPPSREEMTKNQVSLTCLVKGFYPSDIAVEWESNGQPENNYKTTPPMLDSDGSFFLYSKLTVDKSRWQQGNVFSCSVMHEALHNHYTQKSLSLSP light: not shown |
| – | – | – | – | – | 310 nM | 0.6 RU | -4.5 RU | -20.3 RU | -3.8 RU | – | – | – | – | – | antibody with VH3-IgG1-F821 heavy chain and L(WT)-CK light chain (antibody, L235R/S239K/M252Y/N434Y; copies: 2 + 2) heavy: QVQLQESGPGLVKPSETLSLTCAVSGHSISHDHAWSWVRQPPGEGLEWIGFISYSGITNYNPSLQGRVTISRDNSKNTLYLQMNSLRAEDTAVYYCARSLARTTAMDYWGEGTLVTVSSASTKGPSVFPLAPSSKSTSGGTAALGCLVKDYFPEPVTVSWNSGALTSGVHTFPAVLQSSGLYSLSSVVTVPSSSLGTQTYICNVNHKPSNTKVDKKVEPKSCDKTHTCPPCPAPELRGGPKVFLFPPKPKDTLYISRTPEVTCVVVDVSHEDPEVKFNWYVDGVEVHNAKTKPREEQYNSTYRVVSVLTVLHQDWLNGKEYKCKVSNKALPAPIEKTISKAKGQPREPQVYTLPPSRDELTKNQVSLTCLVKGFYPSDIAVEWESNGQPENNYKTTPPVLDSDGSFFLYSKLTVDKSRWQQGNVFSCSVMHEALHYHYTQKSLSLSP light: not shown |
| – | – | – | – | – | 110 nM | 268 RU | 69.3 RU | 284 RU | 230 RU | 54.1 RU | 180 RU | 363 RU | 128 RU | 117 RU | antibody with VH3-IgG1-F890 heavy chain and L(WT)-CK light chain (antibody, M252Y/N434Y/Y436V; copies: 2 + 2) heavy: QVQLQESGPGLVKPSETLSLTCAVSGHSISHDHAWSWVRQPPGEGLEWIGFISYSGITNYNPSLQGRVTISRDNSKNTLYLQMNSLRAEDTAVYYCARSLARTTAMDYWGEGTLVTVSSASTKGPSVFPLAPSSKSTSGGTAALGCLVKDYFPEPVTVSWNSGALTSGVHTFPAVLQSSGLYSLSSVVTVPSSSLGTQTYICNVNHKPSNTKVDKKVEPKSCDKTHTCPPCPAPELLGGPSVFLFPPKPKDTLYISRTPEVTCVVVDVSHEDPEVKFNWYVDGVEVHNAKTKPREEQYNSTYRVVSVLTVLHQDWLNGKEYKCKVSNKALPAPIEKTISKAKGQPREPQVYTLPPSRDELTKNQVSLTCLVKGFYPSDIAVEWESNGQPENNYKTTPPVLDSDGSFFLYSKLTVDKSRWQQGNVFSCSVMHEALHYHVTQKSLSLSP light: not shown |
| – | – | – | – | – | 150 nM | -2 RU | -6.3 RU | -24.9 RU | -7.3 RU | -0.2 RU | -0.75 RU | -2.37 RU | -0.8 RU | -0.9 RU | antibody with VH3-IgG1-F939 heavy chain and L(WT)-CK light chain (antibody, L235R/S239K/M252Y/N434Y/Y436V; copies: 2 + 2) heavy: QVQLQESGPGLVKPSETLSLTCAVSGHSISHDHAWSWVRQPPGEGLEWIGFISYSGITNYNPSLQGRVTISRDNSKNTLYLQMNSLRAEDTAVYYCARSLARTTAMDYWGEGTLVTVSSASTKGPSVFPLAPSSKSTSGGTAALGCLVKDYFPEPVTVSWNSGALTSGVHTFPAVLQSSGLYSLSSVVTVPSSSLGTQTYICNVNHKPSNTKVDKKVEPKSCDKTHTCPPCPAPELRGGPKVFLFPPKPKDTLYISRTPEVTCVVVDVSHEDPEVKFNWYVDGVEVHNAKTKPREEQYNSTYRVVSVLTVLHQDWLNGKEYKCKVSNKALPAPIEKTISKAKGQPREPQVYTLPPSRDELTKNQVSLTCLVKGFYPSDIAVEWESNGQPENNYKTTPPVLDSDGSFFLYSKLTVDKSRWQQGNVFSCSVMHEALHYHVTQKSLSLSP light: not shown |
